Experimental findings from patent publication US20140112930A1 (published 2014) are described below.

Changes are numbered by the printed parent chain.

In assay [1] the target is T1, Dimeric Mouse Ang-2FD conjugated to human IgG1 (mouse (Mus musculus); human).
T1 construct: also called Mouse Ang-2FD-hFc
Nature of the assay: SPR, captured Ab, RT. The method, then: (§1) Antibody was captured on a goat anti-mouse IgG polyclonal antibody surface, a goat anti-human κ polyclonal antibody (Southern Biotech, Birmingham, Ala.) surface or a goat anti-human IgG polyclonal antibody (Jackson Immuno Research Lab, West Grove, Pa.) surface created through direct amine coupling to a BIACORE™ CM5 sensor chip to form a captured antibody surface. […] Antigen-antibody binding and dissociation were monitored in real time at room temperature. Kinetic analysis was performed to calculate KD and half-life of antigen/antibody complex dissociation.
Background: SPR reads the build-up and loss of mass on a sensor chip optically.

Assay [2] deals with T2, Dimeric Human Ang-2FD conjugated to human IgG1 (human).
T2 construct: also called Human Ang-2FD-hFc; hAng-2FD-hFc
Briefly: SPR, captured Ab, RT. As for the experimental part: as §1

The target of assay [3] is T3, Dimeric Monkey Ang-2FD conjugated to human IgG1 (monkey (Macca fascicularis); human).
T3 construct: also called Monkey Ang-2FD-hFc
Briefly: SPR, captured Ab, RT. As for the experimental part: as §1

For assay [4], the target named is T4, wild-type human Ang-2 (hAng-2-WT) (human, UniProt O15123 19-496).
T4 construct: called full-length wild-type; also called Full-length wild-type human Ang-2
T4 sequence: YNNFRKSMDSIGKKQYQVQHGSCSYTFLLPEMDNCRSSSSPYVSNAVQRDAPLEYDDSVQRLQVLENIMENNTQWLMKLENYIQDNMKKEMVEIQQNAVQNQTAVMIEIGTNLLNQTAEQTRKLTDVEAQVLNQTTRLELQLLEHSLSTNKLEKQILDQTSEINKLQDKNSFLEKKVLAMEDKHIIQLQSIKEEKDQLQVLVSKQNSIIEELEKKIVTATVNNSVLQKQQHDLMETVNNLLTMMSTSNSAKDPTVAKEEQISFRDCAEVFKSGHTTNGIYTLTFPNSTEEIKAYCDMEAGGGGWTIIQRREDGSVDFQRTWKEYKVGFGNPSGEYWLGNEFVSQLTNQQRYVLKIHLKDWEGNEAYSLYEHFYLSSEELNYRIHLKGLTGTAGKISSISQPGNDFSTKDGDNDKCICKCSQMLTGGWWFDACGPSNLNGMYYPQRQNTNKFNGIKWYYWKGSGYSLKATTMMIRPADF
Nature of the assay: SPR, captured Ab.

The target in another assay is T5, Monomeric hAng-2FD (human, UniProt O15123 282-496).
T5 construct: also called fibrinogen-like domain of human Ang2; Human Ang-2FD
T5 sequence: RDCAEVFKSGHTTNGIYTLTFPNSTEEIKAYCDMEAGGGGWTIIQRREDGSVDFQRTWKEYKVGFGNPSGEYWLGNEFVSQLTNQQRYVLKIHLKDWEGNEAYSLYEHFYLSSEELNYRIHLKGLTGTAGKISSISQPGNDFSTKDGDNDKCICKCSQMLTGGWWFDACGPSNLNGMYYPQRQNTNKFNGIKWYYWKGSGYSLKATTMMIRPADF
Nature of the assay: SPR, captured Ab.

The target in assay [5] is T6, human bow-Ang-2 tetrameric construct (hBA2) (human).
T6 construct: also called human BA2; hBA2-hIgG1
Nature of the assay: SPR, captured Ab.

For another assay, the target named is T7, Mouse Ang-2FD-hFc (mouse (Mus musculus)).
T7 construct: also called dimeric mouse Ang-2FD
Briefly: blocking ELISA, 16.67 nM antibody, Ang-2FD-hFc to coated hTie-2-mFc. The method, then:
(§2) The plate was then blocked with PBS (Irvine Scientific, Santa Ana, Calif.) containing 0.5% BSA (Sigma-Aldrich Corp., St. Louis, Mo.) for one hour at room temperature. […] Human, mouse or monkey Ang-2FD protein conjugated to human IgG (Ang-2FD-hFc) were added to final concentrations of 2 nM, 8 nM, or 2 nM respectively and incubated for one hour at room temperature. The antibody/Ang-2FD-Fc mixture was then added to the plate containing hTie-2-mFc and incubated for one hour at room temperature. Detection of Ang-2FD-hFc bound to hTie-2-mFc protein was determined with Horse-Radish Peroxidase (HRP) conjugated to a-human IgG antibody (Jackson Immuno Research Lab, West Grove, Pa.) and developed by standard colorimetric response using tetramethylbenzidine (TMB) substrate (BD Biosciences, San Jose, Calif.). Absorbance was read at OD₄₅₀ for 0.1 sec.
On the technique in general: In an ELISA, binding on a coated surface is turned into a signal by an enzyme label.

The target in assay [6] is T1, Dimeric Mouse Ang-2FD conjugated to …. Briefly: competition ELISA, 16.67 nM Ab, coated hTie-2-mFc. As for the experimental part: as §2
Assay [7] has as its target T2, Dimeric Human Ang-2FD conjugated to …. Briefly: competition ELISA, 16.67 nM Ab, coated hTie-2-mFc. The method, then: as §2
The target in assay [8] is T3, Dimeric Monkey Ang-2FD conjugated to …. Briefly: competition ELISA, 16.67 nM Ab, coated hTie-2-mFc. The method, then: as §2

B1: H1H690P (antibody, V domains shown)
VH: EVQLVESGGGLVQPGESLRLSCAASGFTFSSYAMSWVRQGPGKGLEWVSSITGSGDTTYYADSVKGRFTISRDNSKNTLYLHMNSLRAEDTAVYYCAKDFLDYSTYLAFDLWGQGTMVTVSS
VL: EIVLTQSPATLSLSPGERATLSCRASQSVSSYLTWYQQKPGQAPRLLSYDASNRATGIPARFSGSGSGTDFTLTISSLEPEDFAVYYCQQRSNWPLTFGGGTKVEIK
For B1, the Kd (in general, the constant that tells how readily two partners part at equilibrium) in assay [1] stood at 0.0913 nM; in assay [2], 0.079 nM; in assay [3] it was 0.0556 nM; in assay [4] it was 0.0124 nM; with Monomeric hAng-2FD, 0.594 nM; in assay [5], 0.0179 nM. Further, the T1/2 came out at 1.75 h in assay [1]; 2.1 h in [2]; 3.25 h in assay [3]; 26.1 h in assay [4]; 0.419 h in the assay with Monomeric hAng-2FD; 4.99 h in [5].

B2: H1H693P (antibody, V domains shown)
VH: B1 VH with T52S, D56G, K65E
VL: DIQMTQSPSSVSASVGDRVTITCRASQGISSWLAWYQQKPGKAPKLLIYAASSLQSGVPSRFSGSGSGTDFTLTISSLQPEDFATYYCQQANSFPRTFGQGTKVEIK
With B2, the Kd in assay [1] is 0.446 nM; in assay [2], 0.5 nM; in assay [3] it was 1.17 nM; in assay [4], 0.425 nM; with Monomeric hAng-2FD, 44.8 nM; in [5], 0.299 nM. The T1/2 in assay [1] was found to be 1.06 h; in assay [2], 0.618 h; in assay [3], 0.293 h; in assay [4], 1.67 h; with Monomeric hAng-2FD it was 0.0102 h; in [5], 0.478 h.

B3: H1H685P (antibody, human IgG1, V domains shown)
VH: EVQLVESGGGLVQPGGSLRLSCAASGFTFSSYDIHWVRQATGKGLEWVSAIGPAGDTYYPGSVKGRFTISRENAKNSLYLQMNSLRAGDTAVYYCARGLITFGGLIAPFDYWGQGTLVTVSS
VL: EIVLTQSPGTLSLSPGERATLSCRASQSVSSTYLAWYQQKPGQAPRLLIYGASSRATGIPDRFSGSGSGTDFTLTISRLEPEDFAVYYCQHYDNSQTFGQGTKVEIK
notes: Fully human antibody, human IgG1
B3: in the assay with Mouse Ang-2FD-hFc, the “Percent Blocking of Ang-2FD Binding to Tie-2” value is 97.1%.

B4: H1H750N (antibody, V domains shown)
VH: QVKLVESGGGVVQPGRSLRVSCAASGFTFSSYGMHWVRQAPGKGLEWLAIIWYDGDNKYYSDSVKGRFTISRDNSKNTLYLQMNSLRAEDTAEYYCVRDASIASRFLDYWGQGTLVTVSS
VL: DIQMTQSPSSLSASIGDRVTITCRATQDINNYLAWFQQKPGKAPKSLIYATSNLQSGVPSKFSGSGSGTDYTLTISSLQPEDFSTYYCQQYHSYPLTFGGGTKVEIK
As to B4, the Kd is 0.218 nM in assay [1]; 0.164 nM in [2]; 0.199 nM in assay [3]; 0.0095 nM in [4]; 0.787 nM with Monomeric hAng-2FD; 0.0369 nM in [5]. Moreover, the T1/2 in assay [1] came out at 2.02 h; in [2], 2.12 h; in assay [3] it was 4.07 h; in assay [4], 74 h; with Monomeric hAng-2FD, 0.503 h; in [5] it was 4.73 h.

B5: H1H696P (antibody, V domains shown)
VH: QVQLVESGGGLVKPGGSLRLSCAASGFTFSDYYMSWIRQAPGKGLEWVSYISYTGRTIYYADSVKGRFTISRDNAKNSLYLQMNSLRAEDTAVYYCARDTDYGDFFDYWGQGTLVTVSS
VL: B4 VL with I15V, T26S, D28G, N30S, T51A, N53S, Y71F, S84A, H92N
Consider B5, for which the Kd in assay [1] came to 0.402 nM; in [2], 0.289 nM; in assay [3], 0.354 nM; in assay [4], 0.0403 nM; in the assay with Monomeric hAng-2FD, 38.4 nM; in assay [5] it was 0.111 nM. For the same molecule, the T1/2 in assay [1] is 0.627 h; in assay [2], 0.647 h; in assay [3] it was 0.61 h; in [4], 10.7 h; with Monomeric hAng-2FD, 0.00333 h; in [5], 0.858 h.

B6: H2M730N (antibody, V domains shown)
VH: EVQLVESGGGLVQPGGSLRLSCAASGFAFRSYWMTWVRQAPGKGLEWVANIQQDGNDKYYVDSVKGRFTISRDNAKNSLYLQMNSLRAEDTAVYYCARDTGIAEAGPFDYWGQGTLVTVSS
VL: DIQMTQSPSTLSASVGDRVSITCRASQTIISWLAWYQQKPGKAPRLLIYKASSLESGVPSRFSGSGSGTEFTLTINSLQPDDFATYYCQQYNRYWTFGQGTKVEIK
In the case of B6, the Kd stood at 0.21 nM in assay [2], 0.842 nM in [3], 0.0492 nM in [4] and 2.06 nM with Monomeric hAng-2FD. Further, the T1/2 came to 0.783 h in assay [2], 0.61 h in assay [3], 8.65 h in [4] and 0.407 h with Monomeric hAng-2FD. In addition, the “Percent Blocking of Ang-2FD Binding to Tie-2” value in assay [6] is 55%; in assay [7] it was 98.9%; in assay [8], 97.3%.

B7: H1H749N (antibody, V domains shown)
VH: QVQLVESGGGVVQPGRSLRLSCAASGFTFSSYGMHWVRQAPGKGLEWVAVIWYDEFNKYYADSVKGRFTISRDNSKNTLYLQMNSLRAEDTAVYYCARERESGYSYGFDYWGQGTLVTVSS
VL: EIVMTQSPATLSVSPGERATLSCRAGQSVSSNLAWYQQKPGQAPRLLIYGASTRATGIPARFSGSGSGTEFTLTISSLQSEDFAVYYCQQYNNWWTFGQGTKVEIK
Regarding B7, the Kd in [1] is 0.177 nM; in [2], 0.118 nM; in assay [3], 0.407 nM; in [4], 0.0125 nM; with Monomeric hAng-2FD it was 1.13 nM; in assay [5], 0.0325 nM. For the same molecule, the T1/2 in assay [1] is 1.6 h; in [2], 1.82 h; in assay [3], 2.38 h; in [4] it was 30.6 h; in the assay with Monomeric hAng-2FD, 0.558 h; in assay [5] it was 3.92 h.

B8: H1H695P (antibody, V domains shown)
VH: QVQLVESGGGVVQPGRSLRLSCAASGFTFSSYGMHWVRQAPGKGLEWVAVMWYDETNKYYADSVKGRFTISRDNSKNTLYLQMNSLRAEDTAVYYCARYSGYEDYYHGMDVWGQGTTVTVS
VL: B7 VL with L11P, G26S, V29I, Q90H, W95I, K102R, V103L
As for B8, the Kd stood at 0.347 nM in [1]; 0.245 nM in assay [2]; 0.44 nM in [3]; 0.0311 nM in assay [4]; 1.12 nM with Monomeric hAng-2FD; 0.0401 nM in [5]. The T1/2 in assay [1] was 2.07 h; in assay [2], 2.45 h; in assay [3] it was 1.4 h; in assay [4], 29.5 h; in [5] it was 4.24 h.
